Data: paper PMC3583217, “Novel HER2 Aptamer Selectively Delivers Cytotoxic Drug to HER2-positive Breast Cancer Cells in Vitro”

Biological target: HER2 extracellular domain (ECD) (UniProt P04626 23-652)
Test: flow cytometry on protein-coated beads; random-library background subtracted; Hanks buffer (SELEX binding buffer with 0.1 mg/mL salmon sperm DNA and 1 mg/mL BSA), 37 C, 30 min; pH not stated; aptamer pool heated 95 C 5 min then iced in SELEX
Conditions: protein: commercial; tags: covalently coupled to magnetic beads; label: FITC (5' via primer P1 in SELEX)

B1: HB5 (ssDNA)
DNA: AACCGCCCAAATCCCTAAGAGTCTGCACTTGTCATTTTGTATATGTATTTGGTTTTTGGCTCTCACAGACACACTACACACGCACA
  Kd: 316 nM
